Data from patent US20260028391A1 (HUMABS BIOMED, published 2026).
Changes are numbered by the printed parent chain. Numbers in names are those of the source.

B1: MPK145 (antibody, V domains shown)
VH: EVQLVESGGGLVEPGGSLRLSCAASGFTISGYGMSWVRQAPGKGLEWVSSISASSSYIYYGDAMKGRITISRDNGWNSMYLQMNSLRTEDTAVYYCATAPIEPPYFDLWGRGTLVTVSS
VL: QSVVTQPPSVSGAPGQRVTISCTGSSSNIGAGYDVHWYQQFPGKAPKVLIYGNNNRPSGVPDRFAASNSGASASLAITGLQAEDEAAYFCQSYDRRLSGPVFGGGTKLTVL
notes: VH and VL only
B2: MPK146 (antibody, V domains shown)
VH: QVQLVESGGGLVKPGGSLRLSCAASGFTFSGYYMIWIRQAPGKGLEWIASISGSSNYIDYADSVRGRFTISRDNARNILDLQMNSLRAGDTALYYCATEQVPSPGPFDLWGQGTLVTVSS
VL: QSVLTQPPSVSGAPGQRVTISCTGSNSNLGAGYDVHWYQQFPGTSPKLLIYRNTNRPSGVPDRFAGSKSGTSASLAITGLQAEDEADYYCQSYDRSLSGWVFGGGTKLTVL
notes: VH and VL only
B3: MPK149 (antibody, V domains shown)
VH: QVQLVESGGGLVKPGGSLRLSCEASGFTISGYFMIWIRQAPGKGLEWISSISGSSTYTDYAESVKGRFTISRDNGRSTLYLQMNSLRVEDTAVYYCATEQTPSPGPFDLWGQGTLVTVSS
VL: QSVVTQPPSVSGAPGQRVTISCTGTSSNIGAGYDVHWYQQFPGTSPRLLINRNTNRPSGVPDRFSGSQSGSSASLAIAGLQAEDEADYYCQSYDRSVSGWVFGGGTKLTVL
notes: VH and VL only
B4: MPK150-v2 (antibody, V domains shown)
VH: EVQLVESGGGLVKPGGSLRLSCEASGISLSGYYMIWIRQAPGKGLEWISSISGSSTYIDYADSVRGRFTISRHNGQNTIYLQMNSLRVEDTAVYFCATEQTPSPGPFELWGRGILVTVSS
VL: B3 VL with V4L, S21F, A31T, R47K, N51F, T54S, Q68K, S96G, S98N
notes: VH and VL only
B5: MPK151 (antibody, V domains shown)
VH: EVQLVESGGGLVKPGGSLRLSCAASGLTISGYYMIWIRQAPGKGLEWISDISASSTYTDYAESVKGRFSISRDNGQNTVYLQMNSLRAEDTAVYYCATEQTPSPGPFDLWGQGTLVTVSS
VL: B2 VL with R17K, V18I, S25G, N26S, L29F, N55F, A65S
notes: VH and VL only
B6: MPK152 (antibody, V domains shown)
VH: EVQLVESGGGLVKPGGSLRLSCAASGLTISGYYMIWIRQAPGKGLEWISYISGSSSYTNYADSVKGRFTISRDNGQNTLFLQMDSLRVEDTAVYFCATEETPSPGPFGLWGQGTLVTVSS
VL: B3 VL with R47K, N51F, Q68T, A78T, A82T, V97L, S98D, K107E
notes: VH and VL only
B7: MPK153 (antibody, V domains shown)
VH: EVHLVESGGGLVKPGGSLRLSCAASGFTFTGYFMIWIRQAPGKGLEWISYISSSSNYINYADSVKGRFTISRDNGQNTLYLQMNSLRPDDTAVYYCATEQVPSPGPFDLWGQGTLVTVSS
VL: B3 VL with V4L, T19I, T44A, R47K, N51F, N55D, Q68K, V97L, S98D, L108V
notes: VH and VL only
B8: MPK155 (antibody, V domains shown)
VH: B4 VH with G53S, T56N, I79L, E108D, R112Q
VL: B3 VL with V4L, S21F, I29L, R47K, N51Y, N53Y, Q68K
notes: VH and VL only
B9: MPK157 (antibody, V domains shown)
VH: EVQLVESGGGLVKPGGSLRLSCSASGFTLSGYNMNWVRQAPGKGLEWISYISASSSYINYADSVKGRFTISRDNGRSSLYLQMNSLRAEDTAVYFCTTQAELPGWFDPWGQGTLVTVSS
VL: QSVLTQPPSMSGAPGQRVTISCTGSSSNIGAGYDVNWYRQLPGTAPQLLIYRNTNRPSGVPDRFSGSNSGTSASLAITGLQADDEAHYYCQSYDRSLSGWVFGGGTKLTVL
notes: VH and VL only
B10: MPK158 (antibody, V domains shown)
VH: EVQLVESGGGLVKPGGSLRLSCAASGFSISGFYMIWIRQAPGKGLEWISDISASSSYIDYADSVKGRFTISRDNGQNTVHLLMNNLRADDTGVYYCAREQTPSPGPFDLWGQGTLVTVST
VL: QPVLTQPPSVSGAPGQRVTISCTGRSSNIGAGYDVHWYQHLPGTSPKLLIYRNSNRPSGVPDRFSGSTSGTSASLAITGLQADDEADYYCQAYDRILGGWAFGGGTKLTVL
notes: VH and VL only
B11: MPK162 (antibody, V domains shown)
VH: EVQLVESGGGLVKPGDSLRLSCAASGFSLSSYYMFWIRQAPGKGLEWVSDISGGSTFTNYADSVKGRFTISRDNAKKVLYLQMNSLRVDDSAVYYCVRGSSISPNWFESWGQGALVTVSS
VL: QSVLTQPPSVSGAPGQRVTISCTGTSSNIGAGYDVHWYQQVPGTAPKLLIYGNSNRPSGVPDRFSGSKSGTAASLAINGLQTEDEAEYYCQSYDRSLTGSYVFGSGTRVFVR
notes: VH and VL only
B12: MPK174-v2 (antibody, V domains shown)
VH: EVQLVESGGGLVKPGGSLRLSCAASRFKFGDYYMSWIRQAPGKGLEWVSNISPSSSYTNYADSVKGRFTISRDNAKNLLYLQMNSLRAEDTAVYYCARESCSGGSCSLHGMDVWGQGTTVTVAS
VL: QSVLTQPPSVSGAPGQRVTISCTGSSSNIGAGYDVHWYQQLPGTAPKLLIYDNSNRPSGVPDRFSGSKSGTSASLAITGLRAEDDADYYCQSYDRSLGGSIFGGGTKLTVL
notes: VH and VL only
B13: MPK196 (antibody, V domains shown)
VH: B12 VH with E1Q, K76N
VL: B12 VL
notes: VH and VL only
B14: MPK204 (antibody, V domains shown)
VH: B4 VH with E1Q, I27L, G53S, T56N, R65K, I79L, F95Y, E108D, R112Q, I114T
VL: B3 VL with V4L, A31T, R47K, N51Y, Q68K
notes: VH and VL only
B15: MPH12 VH-FRGL / MPH12 VL-FRGL (antibody, V domains shown)
VH: QVQLVESGGGLVKPGGSLRLSCAASGFTFSGFYMKWIRQAPGKGLEWVSSISASGSYTNYADSVEGRFTISRDNAKNSLYLQMNSLRAEDTAVYYCARGDSYCGASACHGEFFHKWGQGTLVTVSS
VL: QSVLTQPPSVSGAPGQRVTISCTGSDSNIGADFDVHWYQQLPGTAPKLLIYGNINRPSGVPDRFSGSKSGTSASLAITGLQAEDEADYYCQSYDRSLHYVFGTGTKVTVL
notes: MPH12 variant; VH and VL only
B16: MPH12 VH-FRGL / MPH12 VL-D25S (antibody, V domains shown)
VH: B15 VH
VL: B15 VL with D26S, K68R, S74F, G79R, T103A
notes: MPH12 variant; VH and VL only
B17: MPH12 VH-FRGL / MPH12 VL-D25E (antibody, V domains shown)
VH: B15 VH
VL: B15 VL with D26E, K68R, S74F, G79R, T103A
notes: MPH12 variant; VH and VL only
B18: MPH12 VH-FRGL / MPH12 VL-S26A (antibody, V domains shown)
VH: B15 VH
VL: B15 VL with S27A, K68R, S74F, G79R, T103A
notes: MPH12 variant; VH and VL only
B19: MPH12 VH-FRGL / MPH12 VL (antibody, V domains shown)
VH: B15 VH
VL: B15 VL with K68R, S74F, G79R, T103A
notes: MPH12 variant; VH and VL only
B20: MPH12 VH-D62E / MPH12 VL-FRGL (antibody, V domains shown)
VH: B15 VH with A23V, D62E, I70V, Y80F, Q82L, N84S
VL: B15 VL
notes: MPH12 variant; VH and VL only
B21: MPH12 VH-D62E / MPH12 VL-D25S (antibody, V domains shown)
VH: B15 VH with A23V, D62E, I70V, Y80F, Q82L, N84S
VL: B15 VL with D26S, K68R, S74F, G79R, T103A
notes: MPH12 variant; VH and VL only
B22: MPH12 VH-D62E / MPH12 VL-D25E (antibody, V domains shown)
VH: B15 VH with A23V, D62E, I70V, Y80F, Q82L, N84S
VL: B15 VL with D26E, K68R, S74F, G79R, T103A
notes: MPH12 variant; VH and VL only
B23: MPH12 VH-D62E / MPH12 VL-S26A (antibody, V domains shown)
VH: B15 VH with A23V, D62E, I70V, Y80F, Q82L, N84S
VL: B15 VL with S27A, K68R, S74F, G79R, T103A
notes: MPH12 variant; VH and VL only
B24: MPH12 VH-D62E / MPH12 VL (antibody, V domains shown)
VH: B15 VH with A23V, D62E, I70V, Y80F, Q82L, N84S
VL: B15 VL with K68R, S74F, G79R, T103A
notes: MPH12 variant; VH and VL only
B25: MPH12 VH-S63A / MPH12 VL-FRGL (antibody, V domains shown)
VH: B15 VH with A23V, S63A, I70V, Y80F, Q82L, N84S
VL: B15 VL
notes: MPH12 variant; VH and VL only
B26: MPH12 VH-S63A / MPH12 VL-D25S (antibody, V domains shown)
VH: B15 VH with A23V, S63A, I70V, Y80F, Q82L, N84S
VL: B15 VL with D26S, K68R, S74F, G79R, T103A
notes: MPH12 variant; VH and VL only
B27: MPH12 VH-S63A / MPH12 VL-D25E (antibody, V domains shown)
VH: B15 VH with A23V, S63A, I70V, Y80F, Q82L, N84S
VL: B15 VL with D26E, K68R, S74F, G79R, T103A
notes: MPH12 variant; VH and VL only
B28: MPH12 VH-S63A / MPH12 VL-S26A (antibody, V domains shown)
VH: B15 VH with A23V, S63A, I70V, Y80F, Q82L, N84S
VL: B15 VL with S27A, K68R, S74F, G79R, T103A
notes: MPH12 variant; VH and VL only
B29: MPH12 VH-S63A / MPH12 VL (antibody, V domains shown)
VH: B15 VH with A23V, S63A, I70V, Y80F, Q82L, N84S
VL: B15 VL with K68R, S74F, G79R, T103A
notes: MPH12 variant; VH and VL only
B30: MPH12 VH-FRGL-S63A / MPH12 VL-FRGL (antibody, V domains shown)
VH: B15 VH with S63A
VL: B15 VL
notes: MPH12 variant; VH and VL only
B31: MPH12 VH-FRGL-S63A / MPH12 VL-D25E (antibody, V domains shown)
VH: B15 VH with S63A
VL: B15 VL with D26E, K68R, S74F, G79R, T103A
notes: MPH12 variant; VH and VL only
B32: MPH12 VH-FRGL-S63A / MPH12 VL (antibody, V domains shown)
VH: B15 VH with S63A
VL: B15 VL with K68R, S74F, G79R, T103A
notes: MPH12 variant; VH and VL only
B33: MPH12 VH-FRGL-D62E / MPH12 VL-FRGL (antibody, V domains shown)
VH: B15 VH with D62E
VL: B15 VL
notes: MPH12 variant; VH and VL only

target: RSV fusion glycoprotein (RSV-F) (respiratory syncytial virus); assay: SPR; F protein loaded on streptavidin sensors, mAb in solution
Procedure: Binding affinity of mAbs for RSV-F protein, MPV-F D280 protein, and MPV-F N280 F variant protein was assessed using surface plasmon resonance (SPR).

Binder	Kd [pM]
B1	1
B2	9.5
B3	1
B4	1
B5	80
B6	1
B7	460
B8	6.3
B9	1
B10	1
B11	100000
B12	1
B13	1
B14	290

target: T1, DS-Cav1 RSV F (respiratory syncytial virus); assay: ELISA on DS-Cav1 RSV F
T1 construct: also called DC-VCav1

Binder	EC50 [µg/mL]
B15	0.0305
B16	0.0219
B17	0.034
B18	0.0397
B19	0.0328
B20	0.0267
B21	0.0236
B22	0.0274
B23	0.031
B24	0.0241
B25	0.0254
B26	0.0249
B27	0.0406
B28	0.0258
B29	0.0358
B30	0.0153
B31	0.0368
B32	0.0238
B33	0.0349
